The supplement of paper PMC10567573
± gives the standard deviation.

Experiment: protein stability index of a GFP-peptide fusion (GPS, HEK-293T) (PSI 1-6); higher = more stable
[1] = treatment: DMSO, c terminus: a fixed tail appended
[2] = treatment: MLN4924 1 uM, 8 h, c terminus: a fixed tail appended
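Further: 24-mer peptide tiles fused after GFP, lentivirally expressed, FACS-sorted into six equal bins by GFP/DsRed ratio, decoded by Illumina sequencing, PSI is the read-weighted mean bin number.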

Row | Sequence | protein stability index [1] | protein stability index [2] | protein stability index (treatment: DMSO, c terminus: native) | protein stability index (treatment: MLN4924 1 uM, 8 h, c terminus: native)
1 | VQFHRHHGQEGSILVTKVEEPSKY [GMPPB] | 3.45 ± 0.31 | 3.58 ± 0.27 |  | 
2 | VQQDPALSSNREAHQHRDKMQQSK [CSNK1G3] | 5.16 ± 0.54 | 5.27 ± 0.21 |  | 
3 | VRGHHPKSGEEAVTVLEDLEKGLE [ZNF232] | 4.73 ± 0.21 | 4.72 ± 0.63 |  | 
4 | VRKHPAVKEKGSTLDLSDLEAEKL [SCD] | 5.12 ± 0.3 | 4.82 ± 0.14 |  | 
5 | VSLSLENRELWKEFSSVGTEMIIT [TBX6] | 2.71 ± 0.62 | 2.31 ± 0.45 |  | 
6 | VSRLTDTTKFTGSHKERFDPSGKG [TPPP] | 4.39 ± 0.1 | 4.5 ± 0.22 |  | 
7 | VSRREGALGWAPAAPPPLKDDPEG [ZBED3] | 5.24 ± 0.37 | 5.43 ± 0.12 |  | 
8 | VSSSEQLQSYQAEIIELRRTVNAL [KRT33B] | 3.12 ± 0.22 | 3.2 ± 0.42 |  | 
9 | VVNTDHGSPEQLQIPVTDSGRHIL [SDE2] | 4.18 ± 0.15 | 4.29 ± 0.45 |  | 
10 | VWDLNMEARPIETYQVHDYLRSKL [PPP2R2C] | 2.42 ± 0.43 | 2.55 ± 0.095 |  | 
11 | VWNRKLDLLCKTSHLSDTGISALV [WDR41] | 2.26 ± 0.27 | 2.2 ± 0.34 |  | 
12 | VWTSPRRLVELAGQSLLKDEALAI [PRAME] | 3.36 ± 0.15 | 3.34 ± 0.21 |  | 
13 | WAANAGVTASPPTDLIWKNQNSWG [LMNB1] | 2.46 ± 0.26 | 2.48 ± 0.5 |  | 
14 | WELVVLGKLKWNLAAVTPHDFIEH [CCND2] | 2.7 ± 0.71 | 2.62 ± 0.39 |  | 
15 | WFKTRRKEMTQKLEALHLEALCEE [DENND6A] | 3.29 ± 0.27 | 3.88 ± 0.42 |  | 
16 | WFSDPSDTALLNLLPMLDALRFTA [CTDNEP1] | 2.73 ± 0.58 | 2.98 ± 0.67 |  | 
17 | WGHCEVTMRYINGLDPEPLPLMDL [SPSB4] | 2.49 ± 0.26 | 2.5 ± 0.4 |  | 
18 | WIIKSNYQGLPVRCVKSIIRQVLQ [SRPK2] | 2.75 ± 0.48 | 2.78 ± 0.5 |  | 

Row | Sequence | protein stability index [1] | protein stability index [2] | protein stability index (treatment: DMSO, c terminus: native) | protein stability index (treatment: MLN4924 1 uM, 8 h, c terminus: native)
19 | WLQERYEIVGNLGEGTFGKVVECL [CLK3] | 2.24 ± 0.068 | 2.27 ± 0.12 |  | 
20 | WLRVLNPDLVKGPWTKEEDQKVIE [MYBL2] | 2.61 ± 0.36 | 2.92 ± 0.18 |  | 
21 | WTFYPRFSSNIHTYHVGKQCFFNG [SPATS1] | 2.74 ± 0.53 | 2.24 ± 0.33 |  | 
22 | YAATTTPFTPLHIKVKPKRVGIFL [TRIM39] | 2.52 ± 0.58 | 2.81 ± 1.1 |  | 
23 | YAVTPLPWCPHLVAVCPIPAAGLD [HDAC6] | 2.99 ± 0.49 | 2.33 ± 0.48 |  | 
24 | YDILPLSPVSRNRLAQVKRKILVL [CTDNEP1] | 2.11 ± 0.36 | 2.35 ± 0.22 |  | 
25 | YFCYKAILEFAEKEGMVSSGQNLL [PTPN9] | 2.2 ± 0.31 | 2.38 ± 0.46 |  | 
26 | YGGRSVAPQNSFSAKLAPHYFHSI [KCNK9] | 2.23 ± 0.11 | 2.3 ± 0.3 |  | 
27 | YLEVLETMDNKKGRRYEAVKWMVV [CLCN6] | 2.4 ± 0.72 | 2.25 ± 0.28 |  | 
28 | YLQKIEEFAEMVEREEEDDALDSE [KCNG1] | 5 ± 0.51 | 5.15 ± 0.17 |  | 
29 | YPFQDSEPVLLFGKIRRGAYALPA [TRIB3] | 2.48 ± 0.27 | 2.66 ± 0.12 |  | 
30 | YPFVLFYSKFHGLEMCVDARTFGN [KMT2E] | 2.87 ± 0.51 | 2.28 ± 0.33 |  | 
31 | YPGIRAGRKNAAPLTIRPPTDWE [TRIM39] |  |  | 3.44 ± 0.31 | 3.9 ± 0.36
32 | YRSEDLLDVDTAAGGFQQRQGLKY [FBXO3] | 4.25 ± 0.18 | 4.18 ± 0.29 |  | 
33 | YRTVVRPTYKVMYKIVTAREWRCC [EMID1] | 2.71 ± 0.79 | 2.38 ± 0.44 |  | 
34 | YSHLGGIDYKTTTILLDGQRVKLK [RAB40A] | 3.12 ± 0.29 | 3.25 ± 0.23 |  | 
35 | YYIDDVFHALVREIRRKEKEAVLA [RIT1] | 2.27 ± 0.32 | 1.94 ± 0.53 |  | 
